Test results from US20220081485A1 (BEIJING WISDOMAB BIOTECHNOLOGY, published 2022).
Read-outs that look alike come from different tables or passages of the source.

T1: recombinant hIL4R-his (human IL-4R extracellular domain with C-terminal His tag) (human (Homo sapiens), UniProt P24394 26-232)
T1 construct: The tag was added at the C-terminus; The protein was expressed in HEK293 cells; also called huIL4R
T1 sequence: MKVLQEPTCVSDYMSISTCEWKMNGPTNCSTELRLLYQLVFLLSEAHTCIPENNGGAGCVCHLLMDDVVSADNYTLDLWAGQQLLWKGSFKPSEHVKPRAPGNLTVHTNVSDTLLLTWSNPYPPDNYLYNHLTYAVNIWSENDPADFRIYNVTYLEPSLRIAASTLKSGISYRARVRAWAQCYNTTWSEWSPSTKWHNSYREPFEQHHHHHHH

T2: human IL-4R on cells (HEK-Blue IL-4/IL-13 cells, TF-1 cells, human PBMCs) (human, UniProt P24394 26-825)
T2 sequence (looked up): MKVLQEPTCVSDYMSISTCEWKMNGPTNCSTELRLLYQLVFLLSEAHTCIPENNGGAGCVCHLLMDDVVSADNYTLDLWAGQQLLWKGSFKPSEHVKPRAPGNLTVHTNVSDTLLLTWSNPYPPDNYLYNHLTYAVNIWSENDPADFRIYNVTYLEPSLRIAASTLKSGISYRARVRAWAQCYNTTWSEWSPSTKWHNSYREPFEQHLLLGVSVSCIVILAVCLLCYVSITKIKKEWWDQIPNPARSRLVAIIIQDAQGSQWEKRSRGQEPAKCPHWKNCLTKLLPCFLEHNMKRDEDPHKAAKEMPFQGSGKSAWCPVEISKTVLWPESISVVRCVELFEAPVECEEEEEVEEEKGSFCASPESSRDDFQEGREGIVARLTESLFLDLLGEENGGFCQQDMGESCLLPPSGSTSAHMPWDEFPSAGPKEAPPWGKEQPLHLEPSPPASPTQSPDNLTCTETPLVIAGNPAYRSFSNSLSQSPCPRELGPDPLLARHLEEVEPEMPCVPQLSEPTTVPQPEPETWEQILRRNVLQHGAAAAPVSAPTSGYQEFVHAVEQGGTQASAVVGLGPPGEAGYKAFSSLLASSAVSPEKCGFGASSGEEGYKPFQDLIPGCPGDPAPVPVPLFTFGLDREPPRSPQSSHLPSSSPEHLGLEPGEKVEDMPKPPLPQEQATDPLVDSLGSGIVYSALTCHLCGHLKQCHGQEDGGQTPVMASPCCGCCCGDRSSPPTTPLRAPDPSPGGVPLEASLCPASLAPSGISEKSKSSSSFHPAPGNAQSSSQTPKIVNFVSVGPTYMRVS

T3: mmIL4R-mFc (Macaca mulatta IL-4R extracellular domain fused to murine IgG2a Fc) (Macaca mulatta)
T3 chain: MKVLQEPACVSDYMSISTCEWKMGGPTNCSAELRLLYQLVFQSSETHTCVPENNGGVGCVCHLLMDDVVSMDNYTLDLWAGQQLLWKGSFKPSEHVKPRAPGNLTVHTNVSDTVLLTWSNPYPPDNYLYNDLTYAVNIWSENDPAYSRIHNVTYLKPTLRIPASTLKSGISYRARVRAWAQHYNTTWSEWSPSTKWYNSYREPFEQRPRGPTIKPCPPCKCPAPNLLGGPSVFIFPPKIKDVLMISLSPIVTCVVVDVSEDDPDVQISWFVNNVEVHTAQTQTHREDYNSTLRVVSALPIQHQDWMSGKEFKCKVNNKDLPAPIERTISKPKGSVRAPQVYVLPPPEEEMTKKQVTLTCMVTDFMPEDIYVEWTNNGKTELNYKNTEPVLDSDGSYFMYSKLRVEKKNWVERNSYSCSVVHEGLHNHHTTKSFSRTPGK

T4: coated recombinant IL4R antigen (Example 3.2) (human (Homo sapiens), UniProt P24394 26-232)
T4 sequence: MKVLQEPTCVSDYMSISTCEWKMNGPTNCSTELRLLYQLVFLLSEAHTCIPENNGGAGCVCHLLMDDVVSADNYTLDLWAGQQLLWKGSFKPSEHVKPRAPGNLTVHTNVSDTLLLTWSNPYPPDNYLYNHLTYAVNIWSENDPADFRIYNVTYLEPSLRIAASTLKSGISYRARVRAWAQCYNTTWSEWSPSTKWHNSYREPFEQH

B1: L28F8-IgG4 (antibody, V domains shown)
VH: EVQLVESGGGLVQPGGSLRLSCAVSGFTFSSYAMSWVRQAPGKGLEWVSSITGGGGGIYYADSVKGRFTISRDNSKNTVYLQMNSLRAEDTAVYYCAKDRISITIRPRYFGLDFWGQGTTVTVSS
VL: DIVMTQSPLSLPVTPGEPASISCRSSQNVVYGNGYNYLDWYLQKSGQSPQLLIYLGTNVAAGVPDRFSGSGSGTDFTLKISRVEAEDVGFYYCMQSLQAPYTFGQGTKLEIKR
notes: also called S1E6 light chain mutant L28F8
B2: S1E6-IgG4 (antibody, V domains shown)
VH: EVQLVESGGGLVQPGGSLRLSCAVSGFTFSSYAMSWVRQAPGKGLEWVSSITGGGGGIYYADSVKGRFTISRDNSKNTVYLQMNSLRAEDTAVYYCAKDRISITIRPRYFGLDFWGQGTTVTVSS
VL: DIVMTQSPLSLPVTPGEPASISCRSSRSVLYGNGYNYLDWYLQKSGQSPQLLIYLGTNVAAGVPDRFSGSGSGTDFTLKISRVEAEDVGFYYCMQSLRTPYTFGQGTKLEIKR
notes: also called monoclonal antibody S1E6
B3: L28G5-IgG4 (antibody, V domains shown)
VH: EVQLVESGGGLVQPGGSLRLSCAVSGFTFSSYAMSWVRQAPGKGLEWVSSITGGGGGIYYADSVKGRFTISRDNSKNTVYLQMNSLRAEDTAVYYCAKDRISITIRPRYFGLDFWGQGTTVTVSS
VL: DIVMTQSPLSLPVTPGEPASISCRSSRNVIYGNGYNYLDWYLQKSGQSPQLLIYLGNNVAAGVPDRFSGSGSGTDFTLKISRVEAEDVGFYYCMQSLQAPYTFGQGTKLEIKR
notes: also called S1E6 light chain mutant L28G5
B4: S2C2 phage-scFv (scFv)
scFv: QVQLQQSGPGLVKPSQTLSLTCAISGDSVSSNNDAWNWIRQSPSRGLEWLGRTYYRSKWYNDYAVSLKGRITINPDTSKNQFSLHLNSVTPEDTAVYYCAKRDSSVGVGAMDVWSQGTTVTVSSGGGGSGGGGSGGGGSVIWMTQSPSSLSASVGDRVTITCRSSQYIGKYLNWYQYKKGQVPKLLIYAASSLRSGVPSRFSGRGSATEFTLTISNLQREDFATYYCQKYNAVPLTFGQGTKLEIK
notes: also called clone S2C2
B5: S1E6 phage-scFv (scFv)
scFv: EVQLVESGGGLVQPGGSLRLSCAVSGFTFSSYAMSWVRQAPGKGLEWVSSITGGGGGIYYADSVKGRFTISRDNSKNTVYLQMNSLRAEDTAVYYCAKDRISITIRPRYFGLDFWGQGTTVTVSSGGGGSGGGGSGGGGSDIVMTQSPLSLPVTPGEPASISCRSSRSVLYGNGYNYLDWYLQKSGQSPQLLIYLGTNVAAGVPDRFSGSGSGTDFTLKISRVEAEDVGFYYCMQSLRTPYTFGQGTKLEIK
notes: also called clone S1E6; S1E6 single chain antibody
B6: S1H9 phage-scFv (scFv)
scFv: EVQLVESGGGLVQPGGSLRLSCAASGFTFSNYSMRWVRQAPGKGLEWVSFISASGSTKYYADSVKGRFTISRDNSKNTLYLQMNSLRAEDTAVYYCARKPTAPRSSALDYWGQGTLVTVSSGGGGSGGGGSGGGGSDIQMTQSPSSLSASVGDRVTITCRASQGVNNYLNWYQQKPGKAPKLLIYGASSRASGVPSRFSGSGSGTDFTLTISSLQPEDFATYYCQQRLSVPLTFGQGTKVEIK
notes: also called clone S1H9

Tests used:
[1] = molecular target: T1, recombinant hIL4R-his (human IL-4R …); test: SPR Biacore X100, antibody captured by anti-human Fc, IL4R-his as analyte, 25 C
Protocol: (§1) The affinity of each anti-IL4R IgG4 chimeric antibody was determined using Biacore X100. Amino coupling kits, human antibody capture kits, CM5 chips, 1× HBS-EP (pH 7.4) and all reagents used in this assay were purchased from GE Healthcare. According to the instructions in the kits, an antibody against the human Fc region was coupled to the surface of the CM5 chip using an amino coupling method, and antibody proteins were diluted to appropriate concentrations to ensure that about 100 RU of the antibodies was captured by the antibody against the human Fc. IL4R-his was set to a series of concentration gradients (100 nm, 33.3 nm, 11.1 nm, 3.7 nm, 1.23 nm) and flew through the surface of the stationary phase.

[2] = molecular target: T2, human IL-4R on cells (HEK-Blue …); test: cell-based or functional assay
[3] = molecular target: T2, human IL-4R on cells (HEK-Blue …); test: cell-based or functional assay; remark: listed apart in the source
[4] = molecular target: T2, human IL-4R on cells (HEK-Blue …); test: cell-based or functional assay; remark: listed apart in the source
[5] = molecular target: T3, mmIL4R-mFc (Macaca mulatta IL-4R …); test: SPR Biacore X100, antibody captured, mmIL4R-mFc as analyte
Protocol: as §1
Similarly, anti-IL4R monoclonal antibodies were captured and mmIL4R-mFc was set to a series of concentration gradient (50 nm, 16.7 nm, 5.56 nm, […], 0.62 nm).

[6] = molecular target: T5, IL4R-mFc (human IL-4R extracellular domain fused to murine IgG2a Fc) (human (Homo sapiens)); test: blocking ELISA: antibody gradient with IL4-his at a fixed concentration on coated IL4R-mFc; bound IL4-his detected with HRP-mouse-anti-his IgG
T5 construct: also called antigen IL4R-mFc
Protocol: (§2) 96 well plates were coated with antigen IL4R-mFc (3 μg/ml, 100 μI/well) overnight at 4° C.

[7] = molecular target: T5, IL4R-mFc (human IL-4R extracellular …); test: as above; remark: listed apart in the source
Protocol: as §2

[8] = molecular target: T1, recombinant hIL4R-his (human IL-4R …); test: SPR Biacore X100, antibody captured by anti-human Fc, IL4R-his as analyte, 25 C; remark: listed apart in the source
Protocol: as §1

[9] = molecular target: T1, recombinant hIL4R-his (human IL-4R …); test: solid phase phage display screening with hIL4R-his as antigen
[10] = molecular target: T4, coated recombinant IL4R antigen …; test: competition ELISA: phage-scFv at a fixed titer on coated recombinant IL4R, against a gradient of recombinant IL4; detected with HRP-anti-M13

Binder | Kd [1] [nM] | koff [1] [s⁻¹] | kon [1] [M⁻¹ s⁻¹] | IC50 values in inhibition of IL-4 (IL-4 induced proliferation of TF-1 cells, CellTiter-Glo) [2] [nM] | IC50 values in inhibition of IL-4 (SEAP, HEK-Blue IL-4/IL-13 cells) [3] [nM] | IC50 values in inhibition of IL-13 (SEAP, HEK-Blue IL-4/IL-13 cells) [4] [nM] | Kd [5] [nM] | koff [5] [s⁻¹] | kon [5] [M⁻¹ s⁻¹] | IC50 (read off the curve) [6] [nM] | IC50 (read off the curve) [7] [nM] | Kd [8] [nM] | koff [8] [s⁻¹] | kon [8] [M⁻¹ s⁻¹] | binding result [9] | binding result [10]
B1 | 0.42 | 0.000144 | 342000 | 0.124 | 0.055 | 0.0121 | 6.93 | 0.00519 | 748000 | ~10 |  |  |  |  |  | 
B2 | 2.84 | 0.000709 | 249000 |  |  |  | 9.3 | 0.0049 | 527000 | ~20 | ~20 | 2.95 | 0.000923 | 312000 |  | 
B3 | 0.465 | 0.000134 | 289000 | 0.118 | 0.0484 | 0.0115 | 10.4 | 0.00709 | 684000 | ~8 |  |  |  |  |  | 
B4 |  |  |  |  |  |  |  |  |  |  |  |  |  |  | binds | binds
B5 |  |  |  |  |  |  |  |  |  |  |  |  |  |  | binds | binds
B6 |  |  |  |  |  |  |  |  |  |  |  |  |  |  | binds | binds
